Results from patent US20030060613, “Novel use of calreticulin in modulating hormone responsiveness and new pharmaceuticals for treating cancer, osteoporosis and chronic inflammatory disease” (published 2003).

Key:
[1] = tested on: RAR/RXR endogenous retinoic acid receptors (Mus musculus); test: cell_activity; settings: P19 cells, 10^-7 M retinoic acid; 0.49 without retinoic acid; 61.95 with 100 uM KLGFFKR
[2] = molecular target: Androgen receptor DNA-binding domain (Rattus norvegicus, UniProt P15207 P15207:541-614); test: EMSA; settings: tags: GST fusion (pGEX-3X); label: 32P
Procedure: As described in Rennie et al., 1993, DNA binding domain of recombinant rat androgen receptor was prepared as a GST-fusion protein using the pGEX-3X vector and purified by glutathione-agarose affinity chromatography. p60 (calreticulin) was purified by affinity chromatography on KLGFFKR-sepharose, followed by gel electrophoresis as described in detail in Rojiani et al., 1991. […] Recombinant calreticulin (GST-fusion protein) was prepared as described by Baksh and Michalak, 1991. Gel retardation assays were carried out as described by Rennie et al., 1993. To analyze the effect of p60, or recombinant calreticulin, on receptor-DNA binding activity, the AR was pre-incubated with p60 for 30 min at 4° C. To analyze the effects of synthetic peptides, anti-calreticulin antibody, and non-immune IgG on p60 inhibition of AR-ARE binding, the peptide, antibody or IgG were pre-incubated with p60 for 30 min at 4° C. The androgen receptor preparation was then added to these mixtures and further incubated for 30 min at 4° C.
Affinity purified DNA binding domain of the recombinant rat androgen receptor (AR) was pre-incubated with or without the indicated concentrations of purified p60 at 4° C. for 30 min. After this pre-incubation the reaction mixtures were incubated with ³²P-labeled 26 base pair ARE (Rennie et al., 1993) (androgen response element), and analyzed by gel retardation assay. […]

Chain of Androgen receptor DNA-binding domain (P15207 541-614, one chain of several): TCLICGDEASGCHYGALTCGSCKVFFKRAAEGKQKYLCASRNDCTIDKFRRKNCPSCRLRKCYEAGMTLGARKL

Q: “bRARE (RAR-beta upstream 32 bp RARE, luciferase reporter)” was tested. Which activity (corrected luc/bgal) [1] did it give?
A: 25.7

B1: ARE, rat probasin promoter -115 to -140 (dsDNA)
DNA 1: GTAAAGTACTCCAAGAACCTATTTGT
DNA 2: ACAAATAGGTTCTTGGAGTACTTTAC
Q: Does B1 bind [2]?
A: binds
